Assay results from patent publication US20240343800A1 (Merck KGaA, published 2024).

B1: 82H02 scFv-Fc (Fc fusion)
VH: EVQLLESGGGLVQPGGSLRLSCAASGFTFTSYAMSWVRQAPGKGLEWVSTISGSGGGTYYTDSVKGRFTISRDNSKNTLYLQMNSLRAEDTAVYYCAQGSSIFDYWGQGTLVTVSS
VL: EIVLTQSPATLSLSPGERATLSCRASQSVSSYLAWYQQKPGQAPRLLIYDASNRATGIPARFSGSGSGTDFTLTISSLEPEDFAVYYCQQRSNWPPCTFGQGTRLEIK
notes: scFv-Fc format; also called unlabelled 82H02 scFv-Fc
B2: bispecific TCE 69A02 in Format 1A (bispecific antibody)
heavy 1: EVQLVESGGGLVQPGGSLRLSCAASGFTFNTYAMNWVRQAPGKGLEWVARIRSKYNNYATYYADSVKDRFTISRDDSKNTLYLQMNSLRAEDTAVYYCVRHGNFGNSYVSWFAYWGQGTMVTVSSASTKGPSVFPLAPSSKSTSGGTAALGCLVKDYFPEPVTVSWNSGALTSGVHTFPAVLQSSGLYSLSSVVTVPSSSLGTQTYICNVNHKPSNTKVDKKVEPKSCDKTHTCPPCPAPPVAGPSVFLFPPKPKDTLMISRTPEVTCVVVDVSHEDPEVKFNWYVDGVEVHNAKTKPREEQYNSTYRVVSVLTVLHQDWLNGKEYKCAVSNKALAAPIEKTISKAKGQPFRPEVHLLPPSREEMTKNQVSLTCLARGFYPKDIAVEWESNGQPENNYKTTPSRQEPSQGTTTFAVTSKLTVDKSRWQQGNVFSCSVMHEALHNHYTQKTISLSPGK
heavy 2: ETTLTQSPATLSVSPGETATLSCRASQSVSSNLAWYQQKPGQAPRLLIYGASTRATGIPATFSGSGSGTEFTLTISSLQSEDFAIYYCQQYKNWPPAFGGGTELEIKGGGGSGGGGSGGGGSGGGGSQVTLKESGPTLVKPTQTLTLTCSFSGFSITTSGVSVGWIRQPPGKALEWLALIYWDDDKRYSPSLKSRLTITRDTSKNQVVLTMTNMDPVDTATYYCAHAPRYTPGGYFDYWGQGTLVTVSSEPKSSDKTHTCPPCPAPPVAGPSVFLFPPKPKDTLMISRTPEVTCVVVDVSHEDPEVKFNWYVDGVEVHNAKTKPREEQYNSTYRVVSVLTVLHQDWLNGKEYKCAVSNKALAAPIEKTISKAKGQPREPQVYTLPPPSEELALNELVTLTCLVKGFYPSDIAVEWLQGSQELPREKYLTWAPVLDSDGSFFLYSILRVAAEDWKKGDTFSCSVMHEALHNRFTQKSLDRSPGKGGGGSGGGGSGGGGSGGGGSETTLTQSPATLSVSPGETATLSCRASQSVSSNLAWYQQKPGQAPRLLIYGASTRATGIPATFSGSGSGTEFTLTISSLQSEDFAIYYCQQYKNWPPAFGGGTELEIKGGGGSGGGGSGGGGSGGGGSQVTLKESGPTLVKPTQTLTLTCSFSGFSITTSGVSVGWIRQPPGKALEWLALIYWDDDKRYSPSLKSRLTITRDTSKNQVVLTMTNMDPVDTATYYCAHAPRYTPGGYFDYWGQGTLVTVSS
light: QAVVTQEPSLTVSPGGTVTLTCRSSTGAVTTSNYANWVQQKPGQAPRGLIGGTNKRAPGTPARFSGSLLGGKAALTLSGVQPEDEAEYYCALWYSNLWVFGGGTKLTVLGQPKAAPSVTLFPPSSEELQANKATLVCLISDFYPGAVTVAWKADSSPVKAGVETTTPSKQSNNKYAASSYLSLTPEQWKSHRSYSCQVTHEGSTVEKTVAPTECS
notes: also called 69A02 TCE 1A; 69A02x1F3.5
B3: bispecific TCE 69A02 in Format 1B (bispecific antibody)
heavy 1: ETTLTQSPATLSVSPGETATLSCRASQSVSSNLAWYQQKPGQAPRLLIYGASTRATGIPATFSGSGSGTEFTLTISSLQSEDFAIYYCQQYKNWPPAFGGGTELEIKGGGGSGGGGSGGGGSGGGGSQVTLKESGPTLVKPTQTLTLTCSFSGFSITTSGVSVGWIRQPPGKALEWLALIYWDDDKRYSPSLKSRLTITRDTSKNQVVLTMTNMDPVDTATYYCAHAPRYTPGGYFDYWGQGTLVTVSSEPKSSDKTHTCPPCPAPPVAGPSVFLFPPKPKDTLMISRTPEVTCVVVDVSHEDPEVKFNWYVDGVEVHNAKTKPREEQYNSTYRVVSVLTVLHQDWLNGKEYKCAVSNKALAAPIEKTISKAKGQPFRPEVHLLPPSREEMTKNQVSLTCLARGFYPKDIAVEWESNGQPENNYKTTPSRQEPSQGTTTFAVTSKLTVDKSRWQQGNVFSCSVMHEALHNHYTQKTISLSPGKGGGGSGGGGSGGGGSGGGGSEVQLVESGGGLVQPGGSLRLSCAASGFTFNTYAMNWVRQAPGKGLEWVARIRSKYNNYATYYADSVKDRFTISRDDSKNTLYLQMNSLRAEDTAVYYCVRHGNFGNSYVSWFAYWGQGTMVTVSSASTKGPSVFPLAPSSKSTSGGTAALGCLVKDYFPEPVTVSWNSGALTSGVHTFPAVLQSSGLYSLSSVVTVPSSSLGTQTYICNVNHKPSNTKVDKKVEPKSS
heavy 2: ETTLTQSPATLSVSPGETATLSCRASQSVSSNLAWYQQKPGQAPRLLIYGASTRATGIPATFSGSGSGTEFTLTISSLQSEDFAIYYCQQYKNWPPAFGGGTELEIKGGGGSGGGGSGGGGSGGGGSQVTLKESGPTLVKPTQTLTLTCSFSGFSITTSGVSVGWIRQPPGKALEWLALIYWDDDKRYSPSLKSRLTITRDTSKNQVVLTMTNMDPVDTATYYCAHAPRYTPGGYFDYWGQGTLVTVSSEPKSSDKTHTCPPCPAPPVAGPSVFLFPPKPKDTLMISRTPEVTCVVVDVSHEDPEVKFNWYVDGVEVHNAKTKPREEQYNSTYRVVSVLTVLHQDWLNGKEYKCAVSNKALAAPIEKTISKAKGQPREPQVYTLPPPSEELALNELVTLTCLVKGFYPSDIAVEWLQGSQELPREKYLTWAPVLDSDGSFFLYSILRVAAEDWKKGDTFSCSVMHEALHNRFTQKSLDRSPGK
light: B2 light
notes: also called 69A02 TCE 1B; 1B_69A02x1F3.5 (1B)

What was measured:
human ROR1 (on cells) [1] = target: T1, human ROR1 (on cells) (human, UniProt Q01973 30-937); assay: flow cytometry competition on NCCIT cells: pre-treatment with titrated unlabelled scFv-Fc, then 146 nM 82H02 scFv-Fc labelled with Alexa Fluor 647-conjugated Zenon fragments
T1 construct: Entry given with its signal peptide; also called hROR1; huROR1

[2] = target: T2, human CD3 (on Jurkat T cells or human CD8+ T cells) (human, UniProt P07766 23-207; P09693 23-182; P04234 22-171; P20963 22-164); assay: flow cytometry, Jurkat T cells
T2 construct: Entries are printed with signal peptides; also called huCD3; CD3ε
T2 sequence (P07766 23-207 limits assumed, chain 1 of 4): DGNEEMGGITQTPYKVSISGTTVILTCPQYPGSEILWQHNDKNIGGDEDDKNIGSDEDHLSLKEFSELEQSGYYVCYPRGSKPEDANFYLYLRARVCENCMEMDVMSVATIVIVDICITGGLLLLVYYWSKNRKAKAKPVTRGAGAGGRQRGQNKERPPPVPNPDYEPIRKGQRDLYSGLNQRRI
T2 sequence (P09693 23-182 limits assumed, chain 2 of 4): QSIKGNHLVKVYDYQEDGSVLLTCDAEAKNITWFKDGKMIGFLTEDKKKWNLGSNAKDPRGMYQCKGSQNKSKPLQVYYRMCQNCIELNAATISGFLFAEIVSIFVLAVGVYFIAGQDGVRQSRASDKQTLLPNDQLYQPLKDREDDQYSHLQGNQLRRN
T2 sequence (P04234 22-171 limits assumed, chain 3 of 4): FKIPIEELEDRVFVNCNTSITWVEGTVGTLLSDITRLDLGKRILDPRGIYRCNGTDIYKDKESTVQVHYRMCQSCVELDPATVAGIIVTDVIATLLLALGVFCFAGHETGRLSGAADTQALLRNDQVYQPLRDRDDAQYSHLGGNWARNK
T2 sequence (P20963 22-164 limits assumed, chain 4 of 4): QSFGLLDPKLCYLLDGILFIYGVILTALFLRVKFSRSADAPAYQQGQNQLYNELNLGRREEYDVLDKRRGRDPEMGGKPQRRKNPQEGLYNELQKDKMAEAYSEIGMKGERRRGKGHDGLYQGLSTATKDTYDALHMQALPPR
Description: (§1) After washing twice with 200 μL of phosphate buffered saline (PBS) by centrifugation at 500×g for 5 minutes at room temperature, the cells were resuspended in 100 μL of Live/Dead fixable green working buffer (ThermoFisher Scientific, Cat No: L23101; one vial of Live/Dead fixable green powder was dissolved into 50 μL of DMSO and 1 μL of dissolved Live/Dead fixable green was added to 1 mL of PBS to prepare the working buffer). After 15-minutes of incubation at room temperature, the cells were washed twice with 200 μL of PBS by centrifugation at 500×g for 5 minutes at room temperature and resuspended in […] of 10% goat serum in BD staining buffer (BD Biosciences, Cat No: 554657). […] The plates were then covered with foil to avoid direct light and incubated for 60 minutes at 4° C. […] After incubating for 30 minutes at 4° C., the cells were washed twice with 200 μL of PBS by centrifugation at 500×g for 5 minutes at room temperature and resuspended into 100 μL of fixation buffer (BioLegend, Cat No: 420801). The samples were then analyzed on a flow cytometer for binding signal using FlowJo software. ROR and CD3 binding EC₅₀s (concentration vs mean fluorescence intensity (MFI)) for reference molecules and test bispecific TCEs were obtained using 4-parameter non-linear regression curve fitting in GraphPad Prism.

human ROR1 (on cells) [3] = target: T1, human ROR1 (on cells); assay: cell-based or functional assay
human ROR1 (on cells) [4] = target: T1, human ROR1 (on cells); assay: flow cytometry, MDA-MB-231 cells; reference: Ref. Frz-binding TCE
Description: as §1

human ROR1 (on cells) [5] = target: T1, human ROR1 (on cells); assay: cell-based or functional assay; remark: listed apart in the source
human ROR1 (on cells) [6] = target: T1, human ROR1 (on cells); assay: cell-based or functional assay; remark: listed apart in the source
human ROR1 (on cells) [7] = target: T1, human ROR1 (on cells); assay: flow cytometry, MDA-MB-231 cells
Description: as §1

[8] = target: T3, cynomolgus CD3 (on cynomolgus pan-T cells) (cynomolgus, UniProt Q95LI5 22-198); assay: flow cytometry, cynomolgus pan-T cells
T3 construct: whole, on cells
T3 sequence (Q95LI5 22-198): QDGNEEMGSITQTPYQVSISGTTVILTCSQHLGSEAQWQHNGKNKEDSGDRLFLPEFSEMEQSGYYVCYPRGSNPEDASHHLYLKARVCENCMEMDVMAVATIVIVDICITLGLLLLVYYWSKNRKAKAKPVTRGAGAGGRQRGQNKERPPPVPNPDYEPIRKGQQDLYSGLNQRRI
Description: as §1

human ROR1 (on cells) [9] = target: T1, human ROR1 (on cells); assay: cell-based or functional assay; remark: listed apart in the source
[10] = target: T2, human CD3 (on Jurkat T cells or human …); assay: flow cytometry; reference: 69A02 TCE in Format 1A
Description: The plates were then covered with foil to avoid direct light and incubated for 60 minutes at 4° C. […] After incubating for 30 minutes at 4° C., the cells were washed twice with 200 μL of PBS by centrifugation at 500×g for 5 minutes at room temperature and resuspended into 100 μL of fixation buffer (BioLegend, Cat No: 420801). The samples were then analyzed on a flow cytometer for binding signal using FlowJo software. ROR and CD3 binding EC₅₀s (concentration vs mean fluorescence intensity (MFI)) for reference molecules and test bispecific TCEs were obtained using 4-parameter non-linear regression curve fitting in GraphPad Prism.

Row | Binder | IC50 (read off the curve) (human ROR1 (on cells) [1]) | EC50 [2] | IFNγ release EC50, PBMCs + ROR1+ MDA-MB-231 cells (human ROR1 (on cells) [3]) | fold higher apparent binding affinity (human ROR1 (on cells) [4]) | TDCC EC50, PBMCs + ROR1+ MDA-MB-231 cells (human ROR1 (on cells) [5]) | EC50 of IFNγ release, human CD8+ T cells + ROR1+ MDA-MB-231 (human ROR1 (on cells) [6]) | EC50 (human ROR1 (on cells) [7]) | EC50 [8] | EC50 of target cell killing (TDCC), human CD8+ T cells + ROR1+ MDA-MB-231 (human ROR1 (on cells) [9]) | fold lower apparent binding affinity [10]
1 | B1 | ~2 nM |  |  |  |  |  |  |  |  | 
2 | B2 |  | 10.4 nM | 0.0876 nM | > 30 fold | 0.0194 nM | 0.0215 nM | 0.23 nM | 13.4 nM | 0.0202 nM | 
3 | B3 |  | 35.9 nM | 2.09 nM | > 30 fold | 0.048 nM | 0.0289 nM | 0.43 nM | 17.6 nM | 0.0356 nM | ~4 fold
